B1: CCL3 (ligand)
chain: SLAADTPTACCFSYTSRQIPQNFIADYFETSSQCSKPGVIFLTKRSRQVCADPSEEWVQKYVSDLELSA
B5: Evasin-1 WT (natural protein)
chain: EDDEDYGDLGGCPFLVAENKTGYPTIVACKQDCNGTTETAPNGTRCFSIGDEGLRRMTANLPYDCPLGQCSNGDCIPKETYEVCYRRNWRDKKN

For experiment [1], the target named is T1, Evasin-1 F14A W89A (Rhipicephalus sanguineus, UniProt P0C8E7 21-114, F14A | W89A). In words: SPR; immobilized CCL3. (In general: SPR reads the build-up and loss of mass on a sensor chip optically.)
Experiment [2] addresses B5. In words: SPR.
For experiment [3], the target named is B5. The experiment in a line: SPR.
Experiment [4] has as its target T1, Evasin-1 F14A W89A. The experiment in a line: SPR; immobilized CCL3. The source holds these as a separate data set.
Experiment [5] concerns the target B1. In words: SPR; immobilized CCL3.
For experiment [6], the target named is B1. In words: SPR; immobilized CCL3.

Our source for the Kd and koff values is PMC2796168 (2009).

In general, Kd refers to the constant that tells how readily two partners part at equilibrium. Usually koff stands for the first-order rate constant of dissociation. With B1, the Kd with Evasin-1 F14A W89A [1] stood at 32.2 nM; with Evasin-1 WT [2], 0.12 nM. For the same molecule, the koff with Evasin-1 WT [3] was 0.00243 s⁻¹; with Evasin-1 F14A W89A [4] it was 0.0146 s⁻¹.

B2: Δ4CCL3 (ligand)
chain: ADTPTACCFSYTSRQIPQNFIADYFETSSQCSKPGVIFLTKRSRQVCADPSEEWVQKYVSDLELSA
With B2, binding with Evasin-1 WT [2] was characterised by a dissociation constant (Kd) of 0.17 nM. In the experiment with Evasin-1 WT [3], this molecule had a koff of 0.00041 s⁻¹.

B3: CCL18 (protein)
chain: AQVGTNKELCCLVYTSWQIPQKFIVDYSETSPQCPKPGVILLTKRGRQICADPNKKWVQKYISDLKLNA
modifications: disulfide (positions not given here)
B3: the Kd in the experiment with Evasin-1 WT [2] is 3.21 nM. Also, in the experiment with Evasin-1 WT [3], the koff is 0.0111 s⁻¹.

B4: CCL4 (protein)
chain: APMGSDPPTACCFSYTARKLPRNFVVDYYETSSLCSQPAVVFQTKRSKQVCADPSESWVQEYVYDLELN
modifications: disulfide (positions not given here)
The molecule B4 came in with a Kd with Evasin-1 WT [2] of 0.51 nM. The molecule further showed a koff with Evasin-1 WT [3] of 0.0022 s⁻¹.

As for B5, in the experiment with CCL3 [5], the equilibrium dissociation constant (Kd) stood at 8 nM. In the experiment with CCL3 [6], this molecule yielded a koff of 0.00276 s⁻¹.

B6: CCL3/CCL5 chimera (ligand)
chain: ASLAADTPTACCFAYIARPLPRAHIKEYFYTSGKCSNPAVVFVTRKNRQVCANPEKKWVREYINSLEMS
Take B6: in the experiment with Evasin-1 WT [2], binding was put at a Kd of 1.02 nM. In the experiment with Evasin-1 WT [3], the koff is 0.0038 s⁻¹.
